In US7183387 (Genentech, dated 2007):

T1: human FcγRIIB α subunit extracellular domain-His6-GST fusion (human, UniProt P31994 43-217)
T1 construct: extracellular domain; also called CD32; not shown: glutathione S transferase (GST)
T1 sequence: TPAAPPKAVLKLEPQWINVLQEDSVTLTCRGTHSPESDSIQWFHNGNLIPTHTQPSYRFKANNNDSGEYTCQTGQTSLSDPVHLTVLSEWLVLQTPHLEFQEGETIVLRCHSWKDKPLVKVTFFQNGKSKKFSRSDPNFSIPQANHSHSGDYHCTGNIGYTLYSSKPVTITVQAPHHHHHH

T2: human FcγRIIA-Arg131 α subunit extracellular domain-His6-GST fusion (human, UniProt P12318 34-217)
T2 construct: extracellular domain; also called FcγRIIA-R131; not shown: glutathione S transferase (GST)
T2 sequence: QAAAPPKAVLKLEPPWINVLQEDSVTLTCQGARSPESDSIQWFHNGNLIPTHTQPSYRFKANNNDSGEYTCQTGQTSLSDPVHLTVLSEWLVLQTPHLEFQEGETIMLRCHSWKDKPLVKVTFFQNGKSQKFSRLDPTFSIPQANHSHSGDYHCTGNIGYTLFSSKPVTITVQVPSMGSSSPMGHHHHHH

T3: human FcγRIIA-R131 α subunit extracellular domain-6His-GST fusion (human, UniProt P12318 34-217)
T3 construct: also called FcγRIIA-Arg131; not shown: glutathione S-transferase (GST)
T3 sequence: T2 sequence

T4: human FcγRIIB α subunit extracellular domain-6His-GST fusion (human, UniProt P31994 43-217)
T4 construct: not shown: glutathione S-transferase (GST)
T4 sequence: T1 sequence

B1: anti-IgE E27 IgG1 Ala327Gln (antibody)
heavy: not shown
light: DIQLTQSPSSLSASVGDRVTITCRASKPVDGEGDSYLNWYQQKPGKAPKLLIYAASYLESGVPSRFSGSGSGTDFTLTISSLQPEDFATYYCQQSHEDPYTFGQGTKVEIKRTVAAPSVFIFPPSDEQLKSGTASVVCLLNNFYPREAKVQWKVDNALQSGNSQESVTEQDSKDSTYSLSSTLTLSKADYEKHKVYACEVTHQGLSSPVTKSFNRGEC
B2: anti-IgE E27 IgG1 Arg255Ala (antibody)
heavy: not shown
light: B1 light
B3: anti-IgE E27 IgG1 Ala327Ser (antibody)
heavy: not shown
light: B1 light
B4: anti-IgE E27 IgG1 Ala327Gly (antibody)
heavy: not shown
light: B1 light
B5: anti-IgE E27 IgG1 Ala339Thr (antibody)
heavy: not shown
light: B1 light
B6: anti-IgE E27 IgG1 Ala378Gln (antibody)
heavy: not shown
light: B1 light
B7: anti-IgE E27 IgG1 Arg301Ala (antibody)
heavy: not shown
light: B1 light
B8: anti-IgE E27 IgG1 Asn297Ala (antibody)
heavy: not shown
light: B1 light
notes: removes the Asn-linked glycosylation site
B9: anti-IgE E27 IgG1 Arg292Ala (antibody)
heavy: not shown
light: B1 light
notes: also called R292(309)A
B10: E27 IgG1 variant R292(309)N (antibody)
heavy: not shown
light: B1 light
notes: also called IG2 83
B11: E27 IgG1 variant Y296(313)W (antibody)
heavy: not shown
light: B1 light
notes: also called IG2 186
B12: E27 IgG1 variant V303(322)T (antibody)
heavy: not shown
light: B1 light
B13: E27 IgG1 variant R292(309)K (antibody)
heavy: not shown
light: B1 light
notes: also called IG2 80
B14: E27 IgG1 variant S324(343)N (antibody)
heavy: not shown
light: B1 light
notes: also called IG2 213
B15: E27 IgG1 variant R292(309)H (antibody)
heavy: not shown
light: B1 light
notes: also called IG2 81
B16: E27 IgG1 variant S324(343)E (antibody)
heavy: not shown
light: B1 light
notes: also called IG2 216
B17: E27 IgG1 variant S298(317)T (antibody)
heavy: not shown
light: B1 light
notes: also called IG2 71
B18: E27 IgG1 variant S298(317)L (antibody)
heavy: not shown
light: B1 light
B19: E27 IgG1 variant S324(343)K (antibody)
heavy: not shown
light: B1 light
notes: also called IG2 215
B20: E27 IgG1 variant R292(309)Q (antibody)
heavy: not shown
light: B1 light
notes: also called IG2 82
B21: E27 IgG1 variant T335(354)E (antibody)
heavy: not shown
light: B1 light
notes: also called IG2 194
B22: E27 IgG1 variant S298(317)N (antibody)
heavy: not shown
light: B1 light
notes: also called IG2 72
B23: E27 IgG1 variant T256(269)N (antibody)
heavy: not shown
light: B1 light
B24: E27 IgG1 variant S298(317)V (antibody)
heavy: not shown
light: B1 light
notes: also called IG2 218
B25: E27 IgG1 variant Y296(313)H (antibody)
heavy: not shown
light: B1 light
B26: E27 IgG1 variant R301(320)M (antibody)
heavy: not shown
light: B1 light
B27: E27 IgG1 variant P331(350)S (antibody)
heavy: not shown
light: B1 light
notes: also called IG2 198
B28: E27 IgG1 variant T335(354)Q (antibody)
heavy: not shown
light: B1 light
notes: also called IG2 171
B29: E27 IgG1 variant V303(322)L (antibody)
heavy: not shown
light: B1 light
notes: also called IG2 150
B30: E27 IgG1 variant T335(354)K (antibody)
heavy: not shown
light: B1 light
notes: also called IG2 195
B31: E27 IgG1 variant S324(343)Q (antibody)
heavy: not shown
light: B1 light
notes: also called IG2 214
B32: E27 IgG1 variant T256(269)G (antibody)
heavy: not shown
light: B1 light
notes: also called IG2 176
B33: E27 IgG1 variant S298(317)G (antibody)
heavy: not shown
light: B1 light
notes: also called IG2 70

These binders were tested against T1, human FcγRIIB α subunit extracellular … (assay: hexamer ELISA).

Binder | ratio to native IgG1
B1 | 0.14 ratio
B2 | 1.59 ratio
B3 | 0.22 ratio
B4 | 0.83 ratio
B5 | 1.2 ratio
B6 | 1.45 ratio
B7 | 1.29 ratio
B8 | 0.1 ratio
B9 | 0.17 ratio

What follows are binders tested against T2, human FcγRIIA-Arg131 α subunit … (assay: hexamer ELISA).

Binder | ratio to native IgG1
B1 | 0.13 ratio
B2 | 1.3 ratio
B3 | 0.23 ratio
B4 | 0.92 ratio
B5 | 1.09 ratio
B6 | 1.4 ratio
B7 | 1.14 ratio
B8 | 0.05 ratio
B9 | 0.27 ratio

What follows are binders tested against T5, human FcγRIIIA-Phe158 α subunit extracellular domain-His6-GST fusion (human, UniProt P08637 17-208) (assay: hexamer ELISA).
T5 construct: extracellular domain; also called FcγRIIIA-F158; CD16; not shown: glutathione S transferase (GST)
T5 sequence (P08637 other isoform, or with tags, fused parts or gaps): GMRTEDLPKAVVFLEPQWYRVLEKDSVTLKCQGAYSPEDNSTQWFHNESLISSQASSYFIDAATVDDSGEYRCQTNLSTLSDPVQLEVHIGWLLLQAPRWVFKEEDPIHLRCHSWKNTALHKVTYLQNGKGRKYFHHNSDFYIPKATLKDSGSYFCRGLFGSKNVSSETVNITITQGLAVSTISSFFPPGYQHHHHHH

Binder | ratio to native IgG1
B1 | 0.06 ratio
B2 | 0.98 ratio
B3 | 0.06 ratio
B4 | 0.36 ratio
B5 | 1.34 ratio
B6 | 1.19 ratio
B7 | 0.22 ratio
B8 | 0.03 ratio
B9 | 0.89 ratio

These binders were tested against T6, human FcγRIA α subunit extracellular domain-His6-GST fusion (human, UniProt P12314 16-292) (assay: FcγRI ELISA and THP-1 cells, averaged).
T6 construct: extracellular domain; also called GST-FcγRIA; CD64; not shown: glutathione S transferase (GST)
T6 sequence (P12314 other isoform, or with tags, fused parts or gaps): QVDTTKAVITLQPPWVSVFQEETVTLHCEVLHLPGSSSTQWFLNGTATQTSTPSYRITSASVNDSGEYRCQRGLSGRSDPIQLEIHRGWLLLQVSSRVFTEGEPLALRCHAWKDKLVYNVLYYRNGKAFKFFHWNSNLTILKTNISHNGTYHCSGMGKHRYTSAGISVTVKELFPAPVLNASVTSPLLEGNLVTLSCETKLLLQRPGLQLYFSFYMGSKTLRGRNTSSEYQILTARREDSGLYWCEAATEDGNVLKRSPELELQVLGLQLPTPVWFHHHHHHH

Binder | ratio to native IgG1
B1 | 0.6 ratio
B2 | 0.99 ratio
B3 | 0.86 ratio
B4 | 0.96 ratio
B5 | 1.06 ratio
B6 | 1.06 ratio
B7 | 1.06 ratio
B9 | 0.95 ratio

Each binder was assayed against T3, human FcγRIIA-R131 α subunit … (assay: ELISA, IgG:IgE hexamers on receptor-GST).

Binder | ratio to native IgG1
B10 | 0.54
B11 | 0.96
B12 | 0.64
B13 | 0.71
B14 | 1.15
B15 | 0.21
B16 | 0.82
B17 | 0.29
B18 | 1.14
B19 | 0.66
B20 | 0.47
B21 | 1.24
B22 | 0.05
B23 | 1.03
B24 | 0.11
B25 | 0.9
B26 | 1.29
B27 | 0.91
B28 | 0.86
B29 | 0.89
B30 | 1.19
B31 | 0.82
B32 | 1.1
B33 | 0.87

What follows are binders tested against T4, human FcγRIIB α subunit extracellular … (assay: ELISA, IgG:IgE hexamers on receptor-GST).

Binder | ratio to native IgG1
B10 | 0.29
B11 | 0.93
B12 | 0.34
B13 | 0.75
B14 | 1.09
B15 | 0.12
B16 | 0.73
B17 | 0.27
B18 | 1.42
B19 | 0.37
B20 | 0.25
B21 | 1.3
B22 | 0.08
B23 | 0.89
B24 | 0.17
B25 | 0.81
B26 | 1.56
B27 | 0.78
B28 | 0.79
B29 | 0.73
B30 | 1.14
B31 | 0.83
B32 | 1.06
B33 | 0.63

The binders below were run against T7, human FcγRIIIA-F158 α subunit extracellular domain-6His-GST fusion (human, UniProt P08637 17-208) (assay: ELISA, IgG:IgE hexamers on receptor-GST).
T7 construct: also called FcγRIIIA-Phe158; not shown: glutathione S-transferase (GST)
T7 sequence (P08637 other isoform, or with tags, fused parts or gaps, form in doubt): as the sequence (P08637 other isoform, or with tags, fused parts or gaps) above

Binder | ratio to native IgG1
B10 | 0.88
B11 | 1.38
B12 | 0.2
B13 | 1.15
B14 | 0.97
B15 | 0.92
B16 | 0.81
B17 | 0.73
B18 | 0.34
B19 | 0.77
B20 | 0.45
B21 | 1.19
B22 | 0.06
B23 | 1.13
B24 | 0.33
B25 | 0.92
B26 | 0.48
B27 | 0.58
B28 | 0.84
B29 | 0.76
B30 | 1.3
B31 | 0.78
B32 | 0.96
B33 | 0.46

These binders were tested against T8, human neonatal Fc receptor (FcRn), biotinylated (human, UniProt P55899 24-297; P61769 21-119, biotinylated (biotin-X-NHS)) (assay: FcRn ELISA, pH 6.0;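 also: Streptavidin-captured FcRn plates, IgG variants titrated 2 h at pH 6.0, peroxidase anti-human IgG read at 450 nm, variant over standard concentration at the standard curve mid-point absorbance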).
T8 construct: captured on streptavidin plates
T8 sequence (P55899 24-297 limits assumed, chain 1 of 2): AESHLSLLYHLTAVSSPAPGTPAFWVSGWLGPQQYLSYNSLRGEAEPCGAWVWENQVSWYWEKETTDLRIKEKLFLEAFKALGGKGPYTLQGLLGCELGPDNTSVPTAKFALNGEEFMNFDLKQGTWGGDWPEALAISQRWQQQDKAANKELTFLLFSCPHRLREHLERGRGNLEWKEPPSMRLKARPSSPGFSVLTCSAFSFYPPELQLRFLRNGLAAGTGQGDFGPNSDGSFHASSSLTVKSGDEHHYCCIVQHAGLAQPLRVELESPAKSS
T8 sequence (P61769 21-119 limits assumed, chain 2 of 2): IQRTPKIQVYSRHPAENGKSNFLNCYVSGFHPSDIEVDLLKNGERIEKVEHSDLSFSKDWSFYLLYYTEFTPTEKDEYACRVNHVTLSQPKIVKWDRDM
Description: FcRn Binding ELISA: For measuring FcRn binding activity of IgG variants, ELISA plates were coated with 2 µg/ml streptavidin (Zymed, South San Francisco) in 50 mM carbonate buffer, pH 9.6, at 4° C. overnight and blocked with PBS-0.5% BSA, pH 7.2 at room temperature for one hour. Biotinylated FcRn (prepared using biotin-X-NHS from Research Organics, Cleveland, Ohio and used at 1–2 µg/ml) in PBS-0.5% BSA, 0.05% polysorbate 20, pH 7.2, was added to the plate and incubated for one hour. Two fold serial dilutions of IgG standard (1.6–100 ng/ml) or variants in PBS-0.5% BSA, 0.05% polysorbate 20, pH 6.0, were added to the plate and incubated for two hours. Bound IgG was detected using peroxidase labeled goat F(ab')_2 anti-human IgG F(ab')_2 in the above pH 6.0 buffer (Jackson ImmunoResearch, West Grove, Pa.) followed by 3,3',5,5'-tetramethyl benzidine (Kirgaard & Perry Laboratories) as the substrate. Plates were washed between steps with PBS-0.05% TWEEN 20® at either pH 7.2 or 6.0. Absorbance was read at 450 nm on a Vmax plate reader (Molecular Devices, Menlo Park, Calif.). Titration curves were fit with a four-parameter nonlinear regression curve-fitting program (KaleidaGraph, Synergy software, Reading, Pa.). Concentrations of IgG variants corresponding to the mid-point absorbance of the titration curve of the standard were calculated and then divided by the concentration of the standard corresponding to the mid-point absorbance of the standard titration curve.

Binder | ratio to native IgG1
B1 | 0.97 ratio
B2 | 0.59 ratio
B6 | 1.32 ratio
B7 | 0.86 ratio
B8 | 0.8 ratio
B9 | 0.81 ratio
